The record followed here is the supplement of paper PMC11780869.

In this data set the test system is Bacillus subtilis. Briefly: cleaved RNA product abundance (RNA/gDNA barcode ratio) relative to median wild-type variant (ratio to wild type); higher = more accumulation of the downstream cleavage product. Particulars: experiment (reporter, strain, medium): exp 8a: truncated aprE reporter, strain BJT201 with 2% xylose (RNase J1 expressed); cleavage site: glnRA (positions -5 to +31 mutated). The method in brief: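 Truncated aprE or tetM reporter mRNAs with barcoded RNase Y cleavage-site windows, mutagenized from oligos at a 9% error rate, sat in the B. subtilis chromosome. Cells grew in LB at 37°C from OD600 0.0003 to 0.3. Gel-selected cleaved RNA was reverse transcribed and its barcodes sequenced with those from genomic DNA, collapsing by UMI. Cleaved product abundance equals the RNA:gDNA barcode ratio per construct over the median construct with the unmutated site.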
Take “CGACATGTCCCGCTTCTTTCATTAATCCATTAGCAACTGATTTGCTATATACATTTACCTTTTAAGAGGAGGAAT”: the “cleaved RNA product abundance” value is 0.89.

As for “CGACATGTCCCGCTTCTTTCATTAATCCATTAGCAACTGTATTGCTATATACATTTACCTTTTAAGAGGAGGAAT”, the “cleaved RNA product abundance” value is 0.279.

On to “CGACATGTCCCGCTTCTTTCATTAATCCATTAGCAACTGTTATGCTATATACATTTACCTTTTAAGAGGAGGAAT”, for which the “cleaved RNA product abundance” value amounted to 0.555.

As for “CGACATGTCCCGCTTCTTTCATTAATCCATTAGCAACTGTTCTGCTATATACATTTACCTTTTAAGAGGAGGAAT”, the “cleaved RNA product abundance” value is 0.271.

On to “CGACATGTCCCGCTTCTTTCATTAATCCATTAGCAACTGTTTCGCTATATACATTTACCTTTTAAGAGGAGGAAT”, for which the “cleaved RNA product abundance” value is 0.271.

As for “CGACATGTCCCGCTTCTTTCATTAATCCATTAGCAACTGTTTGGCTATATACATTTACCTTTTAAGAGGAGGAAT”, the “cleaved RNA product abundance” value was 0.386.

For the sequence “CGACATGTCCCGCTTCTTTCATTAATCCATTAGCAACTGTTTTACTATATACATATACCTTTTAAGAGGAGGAAT”, the “cleaved RNA product abundance” value is 0.482.

Take “CGACATGTCCCGCTTCTTTCATTAATCCATTAGCAACTGTTTTACTATATACATTTACCTTTTAAGAGGAGGAAT”: the “cleaved RNA product abundance” value is 0.48.

Turning to “CGACATGTCCCGCTTCTTTCATTAATCCATTAGCAACTGTTTTGATATATACAGTTACCTTTTAAGAGGAGGAAT”, the “cleaved RNA product abundance” value was found to be 0.247.

Consider “CGACATGTCCCGCTTCTTTCATTAATCCATTAGCAACTGTTTTGATATATACATTTACCTTTTAAGAGGAGGAAT”, for which the “cleaved RNA product abundance” value worked out at 0.35.

As for “CGACATGTCCCGCTTCTTTCATTAATCCATTAGCAACTGTTTTGCAATATACATTTACCTTTTAAGAGGAGGAAT”, the “cleaved RNA product abundance” value worked out at 0.408.

With “CGACATGTCCCGCTTCTTTCATTAATCCATTAGCAACTGTTTTGCTAAATACATTTACCTTTTAAGAGGAGGAAT”, the “cleaved RNA product abundance” value turned out to be 0.47.

With “CGACATGTCCCGCTTCTTTCATTAATCCATTAGCAACTGTTTTGCTACATACATTTACCTTTTAAGAGGAGGAAT”, the “cleaved RNA product abundance” value worked out at 0.772.

Regarding “CGACATGTCCCGCTTCTTTCATTAATCCATTAGCAACTGTTTTGCTATAGACATTTACCTTTTAAGAGGAGGAAT”, the “cleaved RNA product abundance” value was determined as 0.532.

With “CGACATGTCCCGCTTCTTTCATTAATCCATTAGCAACTGTTTTGCTATATAAATTTACCTTTTAAGAGGAGGAAT”, the “cleaved RNA product abundance” value is 0.754.

For the sequence “CGACATGTCCCGCTTCTTTCATTAATCCATTAGCAACTGTTTTGCTATATACATATACCTTTTAAGAGGAGGAAT”, the “cleaved RNA product abundance” value came out at 0.929.

Turning to “CGACATGTCCCGCTTCTTTCATTAATCCATTAGCAACTGTTTTGCTATATACATCTACCTTTTAAGAGGAGGAAT”, the “cleaved RNA product abundance” value amounted to 0.942.

For “CGACATGTCCCGCTTCTTTCATTAATCCATTAGCAACTGTTTTGCTATATACATTAACCTTTTAAGAGGAGGAAT”, the “cleaved RNA product abundance” value came out at 1.3.

As to “CGACATGTCCCGCTTCTTTCATTAATCCATTAGCAACTGTTTTGCTATATACATTCACCTTTTAAGAGGAGGAAT”, the “cleaved RNA product abundance” value is 0.276.

Turning to “CGACATGTCCCGCTTCTTTCATTAATCCATTAGCAACTGTTTTGCTATATACATTTACATTTTAAGAGGAGGAAT”, the “cleaved RNA product abundance” value amounted to 0.688.

For the sequence “CGACATGTCCCGCTTCTTTCATTAATCCATTAGCAACTGTTTTGCTATATACATTTACCTTTTAAGAGGAGGAAT”, the “cleaved RNA product abundance” value is 0.857.

For the sequence “CGACATGTCCCGCTTCTTTCATTAATCCATTAGCAACTGTTTTGCTATATACATTTACGTTTTAAGAGGAGGAAT”, the “cleaved RNA product abundance” value turned out to be 0.903.

Turning to “CGACATGTCCCGCTTCTTTCATTAATCCATTAGCAACTGTTTTGCTATATACATTTACTTTTTAAGAGGAGGAAT”, the “cleaved RNA product abundance” value came to 0.808.

Regarding “CGACATGTCCCGCTTCTTTCATTAATCCATTAGCAACTGTTTTGCTATATACATTTATCTTTTAAGAGGAGGAAT”, the “cleaved RNA product abundance” value worked out at 0.777.

On to “CGACATGTCCCGCTTCTTTCATTAATCCATTAGCAACTGTTTTGCTATATACATTTTACTTTTAAGAGGAGGAAT”, for which the “cleaved RNA product abundance” value came out at 1.24.

With “CGACATGTCCCGCTTCTTTCATTAATCCATTAGCAACTGTTTTGCTATATACATTTTCCTTTTAAGAGGAGGAAT”, the “cleaved RNA product abundance” value is 0.292.

As to “CGACATGTCCCGCTTCTTTCATTAATCCATTAGCAACTGTTTTGCTATATACTTTTACCTTTTAAGAGGAGGAAT”, the “cleaved RNA product abundance” value was found to be 0.253.

“CGACATGTCCCGCTTCTTTCATTAATCCATTAGCAACTGTTTTGCTATATATATTTACCTTTTAAGAGGAGGAAT”: the “cleaved RNA product abundance” value was 0.973.

Regarding “CGACATGTCCCGCTTCTTTCATTAATCCATTAGCAACTGTTTTTCTATATACATTTACCTTTTAAGAGGAGGAAT”, the “cleaved RNA product abundance” value was found to be 0.319.

With “CGACATGTCCCGCTTCTTTCATTAATCCATTAGCAACTTTTTTGCTATATACATTTACCTTTTAAGAGGAGGAAT”, the “cleaved RNA product abundance” value came to 0.569.

For “CGACATGTCCCGCTTCTTTCATTAATCCATTAGCAATTGTTTTGCTATATACATTTACCTTTTAAGAGGAGGAAT”, the “cleaved RNA product abundance” value was found to be 0.776.

“CGACATGTCCCGCTTCTTTCATTAATCCATTAGCAGCTGTTTTGCTATATACATTTACCTTTTAAGAGGAGGAAT”: the “cleaved RNA product abundance” value came to 0.324.

Regarding “CGACATGTCCCGCTTCTTTCATTAATCCATTAGCCACTGTTTTGCTATATACATTTACCTTTTAAGAGGAGGAAT”, the “cleaved RNA product abundance” value was 0.271.

For “CGACATGTCCCGCTTCTTTCATTAATCCATTATCAACTGTTTTGCTATATACATTTACCTTTTAAGAGGAGGAAT”, the “cleaved RNA product abundance” value stood at 0.224.

With “CGACATGTCCCGCTTCTTTCATTAATCCATTATCAACTTTTTTGCTATATACATTTACCTTTTAAGAGGAGGAAT”, the “cleaved RNA product abundance” value was determined as 0.311.

For the sequence “CGACATGTCCCGCTTCTTTCATTAATCCATTTGCAACTGTTTTGCTATATACATTTACCTTTTAAGAGGAGGAAT”, the “cleaved RNA product abundance” value worked out at 0.236.

Turning to “CGACATGTCCCGCTTCTTTCATTAATCCCGTTAGCAACTGTTTTGCTATATACATTTACCTTTTAAGAGGAGGAA”, the “cleaved RNA product abundance” value was determined as 1.01.

Take “CGACATGTCCCGCTTCTTTCATTAATCCCTAAGCAACTGTTTTGCTATATACATTTACCTTTTAAGAGGAGGAAT”: the “cleaved RNA product abundance” value came out at 0.229.

On to “CGACATGTCCCGCTTCTTTCATTAATCCCTTAACAACTGTATTGCTATATACATTTACCTTTTAAGAGGAGGAAT”, for which the “cleaved RNA product abundance” value was found to be 0.142.

Consider “CGACATGTCCCGCTTCTTTCATTAATCCCTTACCAACTGTTTTGCTATATACATTTACCTTTTAAGAGGAGGAAT”, for which the “cleaved RNA product abundance” value turned out to be 0.187.

On to “CGACATGTCCCGCTTCTTTCATTAATCCCTTAGAAACTGTTTTGCTATATACATTTACCTTTTAAGAGGAGGAAT”, for which the “cleaved RNA product abundance” value was determined as 0.173.

For the sequence “CGACATGTCCCGCTTCTTTCATTAATCCCTTAGCAACTATTTTGCTATATACATTTACCTTTTAAGAGGAGGAAT”, the “cleaved RNA product abundance” value is 0.323.

As for “CGACATGTCCCGCTTCTTTCATTAATCCCTTAGCAACTCTTTTGCTATATACATTTACCTTTTAAGAGGAGGAAT”, the “cleaved RNA product abundance” value was 0.0915.

For “CGACATGTCCCGCTTCTTTCATTAATCCCTTAGCAACTGATTTGCTATATACATTTACCTTTTAAGAGGAGGAAT”, the “cleaved RNA product abundance” value came out at 0.25.

For “CGACATGTCCCGCTTCTTTCATTAATCCCTTAGCAACTGTTTAGCTATATACATTTACCTTTTAAGAGGAGGAAT”, the “cleaved RNA product abundance” value came out at 0.236.

In the case of “CGACATGTCCCGCTTCTTTCATTAATCCCTTAGCAACTGTTTGGCTATATACATTTACCTTTTAAGAGGAGGAAT”, the “cleaved RNA product abundance” value was found to be 0.204.

On to “CGACATGTCCCGCTTCTTTCATTAATCCCTTAGCAACTGTTTTACTATATACATTTACCTTTTAAGAGGAGGAAT”, for which the “cleaved RNA product abundance” value amounted to 0.0875.

Turning to “CGACATGTCCCGCTTCTTTCATTAATCCCTTAGCAACTGTTTTCCTATATACATTTACCTTTTAAGAGGAGGAAT”, the “cleaved RNA product abundance” value was 0.214.

Regarding “CGACATGTCCCGCTTCTTTCATTAATCCCTTAGCAACTGTTTTGATATATACATTTAACTTTTAAGAGGAGGAAT”, the “cleaved RNA product abundance” value is 0.245.

Consider “CGACATGTCCCGCTTCTTTCATTAATCCCTTAGCAACTGTTTTGCTAAATACATTTACCTTTTAAGAGGAGGAAT”, for which the “cleaved RNA product abundance” value was determined as 0.149.

In the case of “CGACATGTCCCGCTTCTTTCATTAATCCCTTAGCAACTGTTTTGCTAGATACATTTACCTTTTAAGAGGAGGAAT”, the “cleaved RNA product abundance” value turned out to be 0.127.

As for “CGACATGTCCCGCTTCTTTCATTAATCCCTTAGCAACTGTTTTGCTATATACAATTACCTTTTAAGAGGAGGAAT”, the “cleaved RNA product abundance” value turned out to be 0.305.

In the case of “CGACATGTCCCGCTTCTTTCATTAATCCCTTAGCAACTGTTTTGCTATATACACTTAACTTTTAAGAGGAGGAAT”, the “cleaved RNA product abundance” value turned out to be 0.255.

Take “CGACATGTCCCGCTTCTTTCATTAATCCCTTAGCAACTGTTTTGCTATATACATATACCTTTTAAGAGGAGGAAT”: the “cleaved RNA product abundance” value was found to be 0.267.

On to “CGACATGTCCCGCTTCTTTCATTAATCCCTTAGCAACTGTTTTGCTATATACATTTAACTTTTAAGAGGAGGAAT”, for which the “cleaved RNA product abundance” value was determined as 0.237.

For “CGACATGTCCCGCTTCTTTCATTAATCCCTTAGCAACTGTTTTGCTATATACATTTACATTTTAAGAGGAGGAAT”, the “cleaved RNA product abundance” value worked out at 0.242.

As for “CGACATGTCCCGCTTCTTTCATTAATCCCTTAGCAACTGTTTTGCTATATACATTTACCTTTTAAGAGGAGGAAT”, the “cleaved RNA product abundance” value is 0.213.

“CGACATGTCCCGCTTCTTTCATTAATCCCTTAGCAACTGTTTTGCTATATACATTTACTTTTTAAGAGGAGGAAT”: the “cleaved RNA product abundance” value was found to be 0.19.

Regarding “CGACATGTCCCGCTTCTTTCATTAATCCCTTAGCAACTGTTTTGCTATATACTTTTACCTTTTAAGAGGAGGAAT”, the “cleaved RNA product abundance” value was determined as 0.166.

As to “CGACATGTCCCGCTTCTTTCATTAATCCCTTAGCAACTGTTTTGCTATATAGATTTACCTTTTAAGAGGAGGAAT”, the “cleaved RNA product abundance” value stood at 0.355.

“CGACATGTCCCGCTTCTTTCATTAATCCCTTAGCAACTGTTTTGCTATATATATTTACCTTTTAAGAGGAGGAAT”: the “cleaved RNA product abundance” value is 0.163.
